# Measurements as given in patent US20240092930A1 (MABWELL SHANGHAI BIOSCIENCE, published 2024).
# T1: recombinant human Trop-2-his protein (ACCESSION NO.: NP_002344.2, AA 1-274) (human, UniProt P09758 27-274)
# T1 construct: range 27-274; also called recombinant human Trop-2 protein; recombinant human Trop-2 extracellular domain; not shown: his tag
# T1 sequence (looked up): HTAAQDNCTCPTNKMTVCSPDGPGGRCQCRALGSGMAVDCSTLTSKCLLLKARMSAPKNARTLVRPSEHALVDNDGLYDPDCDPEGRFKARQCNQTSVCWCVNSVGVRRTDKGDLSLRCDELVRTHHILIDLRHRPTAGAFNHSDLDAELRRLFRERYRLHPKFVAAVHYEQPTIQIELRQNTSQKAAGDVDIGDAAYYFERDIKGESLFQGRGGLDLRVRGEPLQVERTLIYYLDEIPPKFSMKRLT
# T2: human Trop-2 on the surface of cells (CHO/Trop-2 cells; BxPC-3 cells; NCI-N87 cells) (human, UniProt P09758 27-323)
# T2 sequence (looked up): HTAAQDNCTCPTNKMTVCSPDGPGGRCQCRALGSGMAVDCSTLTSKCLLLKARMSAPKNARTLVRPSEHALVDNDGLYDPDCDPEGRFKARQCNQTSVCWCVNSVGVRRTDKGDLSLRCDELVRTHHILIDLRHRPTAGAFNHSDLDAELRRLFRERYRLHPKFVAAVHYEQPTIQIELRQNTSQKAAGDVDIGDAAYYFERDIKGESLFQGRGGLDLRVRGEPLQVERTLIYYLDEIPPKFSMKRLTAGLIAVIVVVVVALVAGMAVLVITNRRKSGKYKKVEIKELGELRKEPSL
# T3: recombinant mouse Trop-2-his protein (Cat.: 50922-M08H, Beijing Yiqiao Shenzhou Science and Technology Co., … (mouse, UniProt Q8BGV3 25-270))
# T3 construct: Bought protein; not shown: his tag
# T3 sequence (looked up): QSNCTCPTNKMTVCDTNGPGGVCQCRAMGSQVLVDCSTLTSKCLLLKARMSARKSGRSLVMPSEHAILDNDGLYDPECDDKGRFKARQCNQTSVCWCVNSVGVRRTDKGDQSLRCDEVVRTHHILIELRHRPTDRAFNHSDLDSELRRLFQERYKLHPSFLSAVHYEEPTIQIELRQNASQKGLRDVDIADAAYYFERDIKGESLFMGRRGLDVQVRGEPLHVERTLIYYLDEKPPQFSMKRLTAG
# B1: Sacituzumab (antibody, human IgG1, kappa, V domains shown)
# VH: QVQLQQSGSELKKPGASVKVSCKASGYTFTNYGMNWVKQAPGQGLKWMGWINTYTGEPTYTDDFKGRFAFSLDTSVSTAYLQISSLKADDTAVYFCARGGFGSSYWYFDVWGQGSLVTVSS
# VL: DIQLTQSPSSLSASVGDRVSITCKASQDVSIAVAWYQQKPGKAPKLLIYSASYRYTGVPDRFSGSGSGTDFTLTISSLQPEDFAVYYCQQHYITPLTFGAGTKVEIKR
# notes: expressed in HEK293; also called control antibody Sacituzumab; Saituzumab
# B2: h23-12-25 (antibody, human IgG1, kappa, V domains shown)
# VH: QVQLVQSGAEVKKPGASVKVSCKASGYTFTSYWMHWVRQAPGQGLEWMGEITPSDNYGSYNQKFKGRVTITRDTSTSTAYMELSSLRSEDTAVYYCARGHGNYVSFDYWGQGTLVTVSS
# VL: DIQMTQSPSSLSASVGDRVTITCRASQDISNYLNWYQQKPGKAPKLLIYYTSRLESGVPSRFSGSGSGTDFTLTISSLQPEDFATYFCQQGYTLPPYTFGQGTKLEIKR
# notes: also called h32-12
# Legend:
# [1] = biological target: T1, recombinant human Trop-2-his protein …; test: BLI, antibody on AHC sensor, Trop-2-his 23, 30, 45, 75 nM
# Experimental: Affinities of the antibodies were determined by an assay including capturing Fc fragments of the antibodies with anti-human IgG Fc capture (AHC) biosensors using Octet QKe system instrument from Fortebio.
# For the assay, each of the antibodies (h23-12, h4-3, and control antibody Sacituzumab) was diluted to 4 μg/ml in PBS, and was allowed to flow through the surface of an AHC biosensor (Cat.: 18-0015, PALL) for 120 s. Recombinant human Trop-2-his protein (ACCESSION NO.: NP_002344.2, AA 1-274) was used as a mobile phase. The Trop-2-his protein was used in following concentrations which corresponded to different antibodies: in case of h23-12, the Trop-2 was used in concentrations of 23, 30, 45, and 75 nM; in case of h4-3, it was used in concentrations of 23, 30, 45, and 60 nM; and in case of Sacituzumab, it was used in concentrations of 23, 30, 45, and 75 nM. The binding time was 100 s and the dissociation time was 300 s. When the assay was finished, data from which the response values of blank control had been deducted were fitted to a 1:1 Langmuir binding model using software, and then kinetic constants for antigen-antibody binding were calculated.
# [2] = biological target: T2, human Trop-2 on the surface of cells …; test: cell-based or functional assay
# [3] = biological target: T2, human Trop-2 on the surface of cells …; test: cell-based or functional assay; remark: listed apart in the source
# [4] = biological target: T3, recombinant mouse Trop-2-his protein …; test: ELISA, coated mouse Trop-2-his 1 µg/ml
# Experimental: Washed with PBS 3 times, the plates were blocked with the added 5% BSA PBS at 37° C. for 60 min, and then washed 3 times with PBST. Different concentrations of h23-12 (serial dilutions of 14 concentrations obtained through 3-fold serially diluting a solution with an initial concentration of 10 μg/ml), h4-3 (serial dilutions of 12 concentrations obtained through 3-fold serially diluting a solution with an initial concentration of 3 μg/ml), and Sacituzumab (serial dilutions of 12 concentrations obtained through 3-fold serially diluting a solution with an initial concentration of 3 μg/ml) were added into the plates, with each concentration provided in a parallel well. The plates were incubated at 37° C. for 60 min, and then were washed 4 times with PBST. 1:5000 dilution of H1RP-anti-human Fc (Cat.: 109-035-098, Jackson ImmunoResearch) was added into the plates for incubation at 37° C. for 30 min. Afterwards, the plates were washed with PBST 4 times, and TMB substrate was added for color development at 37° C. for 10 min. Then 2M HCl was added to stop reaction; and absorbances at 450 nm and at 630 nm (as reference wavelength) were read, and A450 nm-630 nm values of the wells in the plates were recorded.
# [5] = biological target: T1, recombinant human Trop-2-his protein …; test: BLI, antibody on AHC sensor, Trop-2-his 60 nM
# Summary of the method: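 Octet BLI: humanized antibodies at 4 μg/ml in PBS captured 120 s on anti-human IgG Fc (AHC) biosensors, then exposed to 60 nM Trop-2-his (AA 1-274) for 100 s association and 300 s dissociation. Blank-subtracted data fitted to 1:1 Langmuir model for kinetic constants.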
Kd [1] [nM],koff [1] [s⁻¹],kon [1] [M⁻¹ s⁻¹],"Internalization percentage, 1 h, NCI-N87 cells, FACS [2] [%]","Internalization percentage, 1 h, BXPC-3 cells, FACS [3] [%]",binding result [4],Kd [5] [nM],Binder
0.941,0.000194,208000,49.3,37.4,no binding (tested: up to 3 µg/ml),0.723,B1
0.64,0.000114,178000,54,32.4,no binding (tested: up to 10 µg/ml),0.502,B2
